US20120277142A1 (HANALL BIOPHARMA, published 2012)
Positions count from the first letter of the chain named.

How the values were obtained:
[1] = biological target: T1, TNF-α (UniProt P01375 77-233, limits assumed); test: competition ELISA: sample vs plate-bound TNFRI190 for TNF-α, from IC50, relative to wild-type TNFRI105
T1 construct: also called tumor necrosis factor; ligand
Method: (§1) Each well was washed three times with 300 μL of washing buffer (0.05% Tween-20, PBS, pH 7.4) and incubated at room temperature for 2 hours with 300 μL of a blocking buffer (5% skim milk, PBS, pH 7.4). Then, each well was washed as mentioned above. A sample of interest was diluted to concentrations of 500 nM, 125 nM, 31 nM, 7.8 nM, 1.9 nM, 0.48 nM, 0.12 nM, and 0.03 nM in series and loaded in an amount of 100 μL into each well in duplicate. To each well was added 100 μL of 50 ng/ml TNF-α, followed by incubation at room temperature for 2 hours. After the wells were washed with a washing buffer, 100 μg/mL anti-TNF-α antibody solution was diluted 1/1000, added in an amount of 100 μL per each well, and incubated at room temperature for 2 hours. After the plates were washed with a washing buffer, a substrate was added in an amount of 100 μL to each well and reacted at room temperature for 15 min. In each well, 100 μL of the substrate 3,3′,5,5′-tetramethylbenzidine (RnD, Cat. No: DY999) was reacted at room temperature for 15 min, followed by adding 50 μL of 1.0 M sulfuric acid (Samchun Chemical, Cat. No: 52129) to each well to stop the reaction.
(§2) The affinity of the Met-TNFRI for TNF-α was assayed using the same procedure as in [Experimental Example 1]

[2] = biological target: T1, TNF-α; test: competition ELISA: sample vs plate-bound TNFRI190 for TNF-α, from IC50, relative to wild-type TNFRI126
Method: as §1
Affinity of Met-TNFRI and Met-TNFRI mutants for TNF-α was determined by measuring an absorbance change with concentration and evaluating IC₅₀ value by measuring an absorbance change with concentration.

[3] = biological target: T1, TNF-α; test: as above; remark: listed apart in the source
Method: as §1, §2

[4] = biological target: T1, TNF-α; test: cell-based or functional assay
[5] = biological target: T1, TNF-α; test: competition ELISA: sample vs plate-bound TNFRI190 for TNF-α, from IC50, relative to wild-type TNFRI171
Method: as §1, §2

B1: TNFRI105-S31 (receptor)
chain: MDSVCPQGKYIHPQNNSICCTKCHKGTYVYNDCPGPGQDTDCRECESGSFTAIENFLPACLSCSKCRKEMGQVEISSCTVDRDTVCGCRKNQYRHYWSENLFQCFN
notes: Met-TNFRI105 superlead mutant made in E. coli
Relative Affinity for Ligand (%) [1]: 453%

B2: TNFRI105-S36 (receptor)
chain: B1 chain with I53M
notes: as for B1
Relative Affinity for Ligand (%) [1]: 459%

B3: Met-TNFRI105 (receptor)
chain: B1 chain with V29L, I53S, F56H, P58R, A59H
notes: also called Wild-type (TNFRI105)
Relative Affinity for Ligand (%) [1]: 100%

B4: TNFRI105-S46 (receptor)
chain: B1 chain with A59G
notes: as for B1
Relative Affinity for Ligand (%) [1]: 547%

B5: TNFRI105-S47 (receptor)
chain: B1 chain with I53M, A59G
notes: as for B1
Relative Affinity for Ligand (%) [1]: 497%

B6: TNFRI105-S41 (receptor)
chain: B1 chain with I53H
notes: as for B1
Relative Affinity for Ligand (%) [1]: 403%

B7: Met-TNFRI126 (receptor)
chain: MDSVCPQGKYIHPQNNSICCTKCHKGTYLYNDCPGPGQDTDCRECESGSFTASENHLRHCLSCSKCRKEMGQVEISSCTVDRDTVCGCRKNQYRHYWSENLFQCFNCSLCLNGTVHLSCQEKQNTVC
notes: also called Wild-type (TNFRI126); wild-type TNFRI
Affinity (%) [2]: 100% | Relative Affinity for Ligand (%) [3]: 100%

B8: TNFRI126-S47 (receptor)
chain: B7 chain with L29V, S53M, H56F, R58P, H59G
notes: Met-TNFRI126 superlead mutant made in E. coli
Relative Affinity for Ligand (%) [3]: 501%

B9: TNFRI126-S59 (receptor)
chain: B7 chain with L29V, S53H, H56F, R58P, H59A, K122Q
notes: as for B8
Relative Affinity for Ligand (%) [3]: 463%

B10: TNFRI126-A30 (receptor)
chain: B7 chain with S53I, E54P, H56F, R58P, H59A
notes: Met-TNFRI126 mutant made in E. coli
Affinity (%) [2]: 952%

B11: TNFRI126-A29 (receptor)
chain: B7 chain with S53I, E54P, H56F, R58F, H59G
notes: as for B10
Affinity (%) [2]: 435%

B12: TNFRI126-A22 (receptor)
chain: B7 chain with S53M, H56F, R58P, H59G
notes: as for B10
Affinity (%) [2]: 1430%

B13: TNFRI126-S62 (receptor)
chain: B7 chain with L29V, S53I, H56F, R58P, H59G, K122Q
notes: as for B8
Relative Affinity for Ligand (%) [3]: 543%

B14: TNFRI126-A27 (receptor)
chain: B7 chain with S53I, E54P, H56F, R58L, H59G
notes: as for B10
Affinity (%) [2]: 894%

B15: TNFRI126-A24 (receptor)
chain: B7 chain with S53I, E54P, H56F, R58I, H59A
notes: as for B10
Affinity (%) [2]: 1060%

B16: TNFRI126-S53 (receptor)
chain: B7 chain with L29V, S53I, H56F, R58P, H59A, K122Q
notes: as for B8
Relative Affinity for Ligand (%) [3]: 522%

B17: TNFRI126-S31 (receptor)
chain: B7 chain with L29V, S53I, H56F, R58P, H59A
notes: as for B8
Relative Affinity for Ligand (%) [3]: 457%

B18: TNFRI126-A25 (receptor)
chain: B7 chain with S53I, E54P, H56F, R58F, H59A
notes: as for B10
Affinity (%) [2]: 682%

B19: TNFRI126-S41 (receptor)
chain: B7 chain with L29V, S53H, H56F, R58P, H59A
notes: as for B8
Relative Affinity for Ligand (%) [3]: 432%

B20: TNFRI126-S48 (receptor)
chain: B7 chain with L29V, S53I, E54P, H56F, R58P, H59G
notes: as for B8
Relative Affinity for Ligand (%) [3]: 477%

B21: TNFRI126-A23 (receptor)
chain: B7 chain with S53I, E54P, H56F, R58L, H59A
notes: as for B10
Affinity (%) [2]: 1100%

B22: TNFRI126-S60 (receptor)
chain: B7 chain with L29V, S53H, H56F, R58P, H59A, K122N
notes: as for B8
Relative Affinity for Ligand (%) [3]: 397%

B23: TNFRI126-A26 (receptor)
chain: B7 chain with S53I, E54P, H56F, R58P, H59G
notes: as for B10
Affinity (%) [2]: 1140%

B24: TNFRI126-S54 (receptor)
chain: B7 chain with L29V, S53I, H56F, R58P, H59A, K122N
notes: as for B8
Relative Affinity for Ligand (%) [3]: 448%

B25: TNFRI126-S36 (receptor)
chain: B7 chain with L29V, S53M, H56F, R58P, H59A
notes: as for B8
Relative Affinity for Ligand (%) [3]: 489%

B26: TNFRI126-A20 (receptor)
chain: B7 chain with S53E, H56F, R58P, H59A
notes: as for B10
Affinity (%) [2]: 782%

B27: TNFRI126-S56 (receptor)
chain: B7 chain with L29V, S53M, H56F, R58P, H59A, K122Q
notes: as for B8
Relative Affinity for Ligand (%) [3]: 602%

B28: TNFRI126-S46 (receptor)
chain: B7 chain with L29V, S53I, H56F, R58P, H59G
notes: as for B8
Relative Affinity for Ligand (%) [3]: 412%

B29: TNFRI126-S63 (receptor)
chain: B7 chain with L29V, S53M, H56F, R58P, H59G, K122N
notes: as for B8
Relative Affinity for Ligand (%) [3]: 486%

B30: TNFRI126-A21 (receptor)
chain: B7 chain with S53I, H56F, R58P, H59G
notes: as for B10
Affinity (%) [2]: 1400%

B31: TNFRI126-S57 (receptor)
chain: B7 chain with L29V, S53M, H56F, R58P, H59A, K122N
notes: as for B8
Relative Affinity for Ligand (%) [3]: 465%

B32: Met-TNFRI171 (receptor)
chain: MDSVCPQGKYIHPQNNSICCTKCHKGTYLYNDCPGPGQDTDCRECESGSFTASENHLRHCLSCSKCRKEMGQVEISSCTVDRDTVCGCRKNQYRHYWSENLFQCFNCSLCLNGTVHLSCQEKQNTVCTCHAGFFLRENECVSCSNCKKSLECTKLCLPQIENVKGTEDSGTT
notes: also called Wild-type (TNFRI171); wild-type TNFRI
Relative Activity (Cytotoxicity-neutralizing activity) (fold) [4]: 1 fold | Relative Affinity for Ligand (%) [5]: 100%

B33: TNFRI171-A2 (receptor)
chain: B32 chain with S53I, H56F, R58P, H59A
Relative Activity (Cytotoxicity-neutralizing activity) (fold) [4]: 207 fold

B34: TNFRI171-A9 (receptor)
chain: B32 chain with S53M, H56F, R58P, H59A
Relative Activity (Cytotoxicity-neutralizing activity) (fold) [4]: 158 fold

B35: TNFRI171-A18 (receptor)
chain: B32 chain with S53H, H56F, R58P, H59A
Relative Activity (Cytotoxicity-neutralizing activity) (fold) [4]: 126 fold

B36: TNFRI171-A16 (receptor)
chain: B32 chain with S53K, H56F, R58P, H59A
Relative Activity (Cytotoxicity-neutralizing activity) (fold) [4]: 139 fold

B37: TNFRI171-A8 (receptor)
chain: B32 chain with S53F, H56F, R58P, H59A
Relative Activity (Cytotoxicity-neutralizing activity) (fold) [4]: 120 fold

B38: TNFRI171-A21 (receptor)
chain: B32 chain with S53I, H56F, R58P, H59G
Relative Activity (Cytotoxicity-neutralizing activity) (fold) [4]: 226 fold

B39: TNFRI171-A15 (receptor)
chain: B32 chain with S53Y, H56F, R58P, H59A
Relative Activity (Cytotoxicity-neutralizing activity) (fold) [4]: 142 fold

B40: TNFRI171-A22 (receptor)
chain: B32 chain with S53M, H56F, R58P, H59G
Relative Activity (Cytotoxicity-neutralizing activity) (fold) [4]: 242 fold

B41: TNFRI171-A30 (receptor)
chain: B32 chain with S53I, E54P, H56F, R58P, H59A
Relative Activity (Cytotoxicity-neutralizing activity) (fold) [4]: 127 fold

B42: TNFRI171-A26 (receptor)
chain: B32 chain with S53I, E54P, H56F, R58P, H59G
Relative Activity (Cytotoxicity-neutralizing activity) (fold) [4]: 196 fold

B43: TNFRI171-A10 (receptor)
chain: B32 chain with S53W, H56F, R58P, H59A
Relative Activity (Cytotoxicity-neutralizing activity) (fold) [4]: 44 fold
